The supplement of paper PMC11865577

What was measured:
Assay in all cases: pull-down binding Z-score (relative to library population); higher = stronger binding
[1] = system: TO-N3-2 (biotin conjugate); conditions: RNA library: Library-2
Summary of the method: (§1)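 Streptavidin beads with 100 pmol of biotin-conjugated small molecule were incubated for 60 min at 25 °C with 1 μg of heat-folded Cy5- or Cy3-end-labelled RNA library in phosphate/NaCl/KCl buffer. Bound RNA was eluted in hot SDS after three washes and hybridised to a DNA barcode microarray at 55.5 °C for 20 h. Each binding score is a library-referenced Z-score, computed after beads-only subtraction and a trimmed mean of barcoded replicate probes.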

[2] = system: TO-3-N3 (biotin conjugate); conditions: RNA library: Library-2
Summary of the method: as §1

TO-N3 (biotin conjugate) = conditions: RNA library: Library-2
Summary of the method: as §1

[3] = system: G-clamp-N3 (biotin conjugate); conditions: RNA library: Library-1 (pre-miRNA loops + repeats)
Summary of the method: as §1

[4] = system: TO-3-N3-2 (biotin conjugate); conditions: RNA library: Library-2
Summary of the method: as §1

Sequence | pull-down binding Z-score [1] | pull-down binding Z-score [2] | pull-down binding Z-score (TO-N3 (biotin conjugate)) | pull-down binding Z-score [3] | pull-down binding Z-score [4]
AGCUGUUGGCCAUGGCGACAACACCU [hsa-mir-6742] | 0.561 | -0.508 | -0.246 | 0.213 | -0.322
GGUUUUGCCAUCAUGCCAAAAGCU [hsa-mir-548v] | 0.259 | 0.00688 | 0.277 | -0.76 | -0.0997
CUGCAGAACAUUGCAG [hsa-mir-4310] | -1.08 | -0.487 | -0.727 | 0.0291 | -0.408
CCGCUAGUGGAAGAAGAUGGCGG [hsa-mir-6125] | 1.59 | 0.322 | 0.547 | 1.5 | 0.669
CAAUUUGAGACCAAU [hsa-mir-1285-2] | 0.218 | -0.0235 | -0.0272 | -1.39 | 0.444
AGAAUUACUUAUCUGAGCCAAAGUAAUUCA [hsa-mir-1297] | -0.336 | 0.332 | 0.386 | -0.86 | 0.225
UUUGCCAAUAAAAGUAAUGACAAA [hsa-mir-548ah] | -0.39 | 0.507 | 0.226 | -1.16 | 0.181
CUGCUGAAUCUUCAGAAAGG [hsa-mir-3142] | 0.135 | -0.432 | -0.164 | -0.0627 | -0.178
CACCAAAGGGUUAAGGGUUUGCUCUGGAG [hsa-mir-4653] | 0.14 | -0.018 | 0.124 | -0.264 | 0.0957
AGAUCUGUCUCUGAUUGUUUCCAAGAUCU [hsa-mir-6888] | 0.0817 | 0.132 | 0.136 | -0.781 | 0.0544
UUUGCGUUACUUUCAAUCGUAAA [hsa-mir-548x] | -1.46 | -1.01 | -1.13 | -0.79 | -0.253
CCCGAGCUGGGCAGCAUGAAGGGCCUCGGG [hsa-mir-486-2] | 1.49 | 1.74 | 1.64 | 3.94 | 0.949
CUUUAGCUAUUCUGAAUGCCUAAAG [hsa-mir-4662a] | -0.393 | -0.298 | -0.375 | -0.469 | -0.236
UGAGGUACUUCCUUC [hsa-mir-1205] | -0.169 | 0.111 | 0.104 | -0.28 | -0.247
UACUAACAGCACUGGAGGGUGUA [hsa-mir-142] | 0.533 | -0.0529 | 0.114 | 2.68 | 0.107
AUAGUUUUAGGGCAGGGAUUUUGCCCACAAGGAGGUAACUAU [hsa-let-7d] | 0.203 | 0.236 | 0.112 | -0.917 | 0.589
CUGCUGCCGAUUCUGCACCAG [hsa-mir-4756] | 0.461 | -0.432 | -0.301 | -1.02 | -0.46
CAGAGCUGCAGCUGCUCCACCCUG [hsa-mir-6730] | 1.42 | 0.563 | 1.12 | -0.915 | 0.319
CAAAUCGCCUCUUCAAUGGAUUUG [hsa-mir-133a-1] | -0.613 | 0.308 | 0.0594 | 1.23 | -0.209

Sequence | pull-down binding Z-score [1] | pull-down binding Z-score [2] | pull-down binding Z-score (TO-N3 (biotin conjugate)) | pull-down binding Z-score [3] | pull-down binding Z-score [4]
GAGCUCAGGAGCUC [hsa-mir-8052] | -0.448 | -0.634 | -0.9 | 0.271 | -0.529
UCACUGCUGCUGGCGCCCUGA [hsa-mir-943] | 0.911 | 0.0735 | 0.432 | -0.764 | 0.0365
UCCGGCCGGCCAUGCUGGCGGGG [hsa-mir-762] | 0.213 | -0.72 | -0.676 | 0.45 | -0.506
UUUGUGUAAGGAAUUUUGUGGUCACAAA [hsa-mir-10a] | -0.825 | -1.06 | -1.25 | 1.29 | -0.175
CUUUCCUUUUUGUCUGUACUGGGAAG [hsa-mir-373] | -1.12 | -0.365 | -0.709 | 0.709 | -0.328
AUUUCCCAAAGUUGGGAAAA [hsa-mir-320b-2] | -1.08 | 0.0303 | -0.432 | -1.23 | -0.231
UGCAGUUCUGUUGGGUGACAGCA [hsa-mir-6499] | 0.485 | 0.239 | 0.342 | -0.982 | -0.0248
CUGGGAGGUGUGAUCCUGUGCUUCCUGG [hsa-mir-3689a] | 1.15 | 0.678 | 0.863 | -0.339 | 0.507
GGAGACACUUUCACUAUAUAUAGUGGCUCC [hsa-mir-3156-2] | -1.03 | -0.948 | -1.34 | -0.175 | -0.571
CAGAGUGGGCUCACCUCUCGCCCACACUG [hsa-mir-6760] | -0.38 | -0.556 | -0.637 | -0.917 | -0.336
GACAGGGAAAAGCACACAAGGAACUUGUC [hsa-mir-3909] | -0.0273 | -0.138 | -0.0969 | 0.557 | 0.112
UUCAUAGGGAAGCCUUUCCAUGAA [hsa-mir-4738] | -0.574 | -0.542 | -0.559 | -0.912 | -0.446
UGUGCCUUGCCUUUCCUUUGGCACA [hsa-mir-4438] | -0.0304 | -0.0269 | -0.0545 | 0.155 | -0.183
CUGUCUGUUGUAUAAAAGAAAAGAUCG [hsa-mir-517a] | 1 | 0.157 | 0.594 | -0.46 | 0.743
GUUUGAUAGUUUAGACACAAAC [hsa-mir-3591] | -0.389 | 0.44 | 0.263 | 0.0903 | 0.11
GGUGGGUGCC [hsa-mir-1268b] | -0.075 | -0.142 | -0.332 | -0.587 | -0.32
GAGUUUGGGAUUUGAAAAAACC [hsa-mir-181a-2] | 0.793 | 0.253 | 0.394 | 0.843 | 0.292
UGCAUAAAUGAAGCUGAAUGA [hsa-mir-6134] | 0.629 | -0.352 | -0.0557 | -0.213 | 0.378
UGGUUUGACACAGAGCUAAAUCA [hsa-mir-5007] | -0.172 | 0.00148 | 0.596 | -0.866 | 0.0372
